# Assay results from paper PMC3774798 (PLoS ONE, 2013).
# How the values were obtained:
# [1] = tested on: Nc1nc2c(ncn2[C@@H]2O[C@@H]3CO[P@](=O)(O)O[C@H]4[C@@H](O)[C@H](n5cnc6c(=O)[nH]c(N)nc65)O[C@@H]4CO[P@](=O)(O)O[C@H]3[C@H]2O)c(=O)[nH]1; assay: purified protein
# [2] = tested on: Nc1nc2c(ncn2[C@@H]2O[C@H](COP(=O)(O)O[C@H]3[C@@H](O)[C@H](n4cnc5c(=O)[nH]c(N)nc54)O[C@@H]3COP(=O)(O)O)[C@@H](O)[C@H]2O)c(=O)[nH]1; assay: purified protein; conditions: Mg2+ and/or Mn2+
# PA4781HD-GYP = target: T1, PA4781HD-GYP (Pseudomonas aeruginosa, UniProt Q9HV27); assay: RP-HPLC of nucleotides, turnover; format: biochemical; conditions: REC domain removed, not phosphorylated; pH 8, 30 °C, Mg2+ and/or Mn2+
# T1 construct: gene PA4781; HD-GYP domain, first 111 residues (REC domain) removed, His-tag (pET28b), E. coli BL21(DE3); mainly monomer
# T1 sequence (Q9HV27 112-393): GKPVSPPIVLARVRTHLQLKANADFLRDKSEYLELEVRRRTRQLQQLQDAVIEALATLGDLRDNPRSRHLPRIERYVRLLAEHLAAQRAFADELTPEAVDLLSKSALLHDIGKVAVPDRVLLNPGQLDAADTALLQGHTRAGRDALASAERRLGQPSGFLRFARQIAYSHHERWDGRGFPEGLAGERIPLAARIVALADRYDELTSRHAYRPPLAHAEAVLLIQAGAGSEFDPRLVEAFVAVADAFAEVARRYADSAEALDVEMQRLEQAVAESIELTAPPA
# [3] = protein phosphorylated with acetyl phosphate (extent unknown), pH 8, 30 °C
# [4] = 10 mM MgCl2 and 2.5 mM MnCl2, 50 mM Tris-HCl pH 8, 150 mM NaCl, 30 °C, 0.64 µM enzyme
# [5] = 50 mM Tris-HCl pH 8, 150 mM NaCl, 30 °C, may be apparent value (about 30% c-di-GMP still bound to protein)
molecule,measurement,setting,value
PA4781 (Pseudomonas aeruginosa PAO1),Km,"[1]; protein phosphorylated with acetyl phosphate (extent unknown), 10 mM MgCl2, pH 8, 30 °C",119 ± 30 µM
same,Km,[2]; [3],27 ± 8 µM
same,kcat,[2]; [3],7.7±1x10^-4 s^-1
Nc1nc2c(ncn2[C@@H]2O[C@@H]3COP(=O)(O)O[C@H]4[C@@H](O)[C@H](n5cnc6c(=O)[nH]c(N)nc65)O[C@@H]4COP(=O)(O)O[C@H]3[C@H]2O)c(=O)[nH]1 [c-di-GMP],"RP-HPLC of nucleotides, turnover",PA4781HD-GYP,"displays little, but significant PDE activity"
PA4108 (Pseudomonas aeruginosa PAO1),Km,[1]; [4],20 ± 5 µM
same,kcat,[1]; [4],0.00015 ± 1e-05 s⁻¹
same,Km,[2]; [5],30 ± 9 µM
same,kcat,[2]; [5],1.2±0.1x10^-3 s^-1
